One molecule from patent publication EP4019546A1 can be followed below.

Read-outs that look alike come from different tables or passages of the source.

In assay [1] the target is human IL-31 (human) (UniProt Q6EBC2). Put plainly: cell-based or functional assay.
For assay [2] the target is unchanged. In words: cell-based or functional assay. The source holds these as a separate data set.
Assay [3] addresses human IL-31-His (human) (UniProt Q6EBC2). In words: SPR (Biacore T200), IL-31-His captured via anti-His antibody, scFv as analyte, 1:1 model. In general terms: Surface plasmon resonance follows binding to a sensor surface in real time, without labels.
Assay [4] has the same target. The description is as above. The source holds these as a separate data set.
The target of assay [5] is human IL-31 (human) (UniProt Q6EBC2). In words: competitive ELISA, IL-31RA coated, biotinylated IL-31 preincubated with scFv; competitor IL-31RA. (ELISA stands for enzyme-linked immunosorbent assay.)

Sequence of human IL-31 (human) (Q6EBC2 24-164 limits assumed): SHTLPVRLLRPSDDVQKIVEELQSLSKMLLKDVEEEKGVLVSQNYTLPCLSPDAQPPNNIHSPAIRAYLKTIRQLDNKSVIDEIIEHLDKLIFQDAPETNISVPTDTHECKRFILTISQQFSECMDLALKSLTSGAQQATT
Sequence of human IL-31-His (human) (Q6EBC2 24-164 limits assumed): as above

B1: PRO1643 (scFv, from another filing)
scFv: AFQLTQSPSSLSASVGDRVTITCQASQSIDSWLAWYQQKPGKPPKLLIYQASKLASGVPSRFSGSGSGTDYTLTISSLQPEDFATYYCQTYYGGGHIGWGFGTGTKVTVLGGGGGSGGGGSGGGGSGGGGSQSQLVESGGGLVQPGGSLRLSCAASGFSFSANYWICWVRQAPGKGLEWIVCIYIGSRADTYYAPWAKGRFTISKDNSKNTVYLQMNSLRAEDTAVYFCARFSSGIYDLDRFFLWGQGTLVTVSS
The Kd is the free concentration of one partner at which half of the binding sites on the other are occupied at equilibrium, for simple one-to-one binding. Higher therefore signals a looser complex. The term koff denotes the rate constant with which the complex falls apart. Lower therefore signals a long-lived complex. As usually defined, the kon is a measure of how fast the partners come together. Read a low kon as slow association. Usually IC50 stands for the concentration at which inhibition is half-maximal. Low values mean higher potency, high ones lower potency. For the molecule B1, in the assay with human IL-31 (human) [1], the IC50, neutralization of hIL-31-induced signaling in IL-31RA/OSMR dimerization assay was 11.1 ng/mL and the rel. IC50 (IC50, BMS-981164/IC50, test sample), IL-31RA/OSMR dimerization assay amounted to 1.16. For the same molecule, in the assay with human IL-31 (human) [2], the IC50, neutralization of hIL-31-induced signaling in IL-31RA/OSMR dimerization assay was found to be 8.08 ng/mL and the rel. IC50 (IC50, BMS-981164/IC50, test sample), IL-31RA/OSMR dimerization assay was found to be 0.85. In addition, in the assay with human IL-31-His (human) [3], the dissociation constant (Kd) worked out at 0.505 nM, the koff is 0.000447 s⁻¹ and the association rate constant (kon) was 884000 M⁻¹ s⁻¹. In the assay with human IL-31-His (human) [4], this molecule displayed an equilibrium dissociation constant (Kd) of 1.13 nM, a koff of 0.000653 s⁻¹ and an on-rate (kon) of 579000 M⁻¹ s⁻¹. In the assay with human IL-31 (human) [5], this molecule gave an IC50 of 4.58 ng/mL and a rel. IC50 (IC50, BMS-981164/IC50, test sample) of 2.04.
